Results reported in article PMC4742958, “NuSAP governs chromosome oscillation by facilitating the Kid-generated polar ejection force” (Nature Communications, 2016).

Target: T1, glutathione S-transferase (GST)-tagged Kid recombinant protein (human, UniProt Q14807 1-665)
T1 construct: cDNA amplified from a cDNA library extracted from HEK 293T cells, inserted into pGEX-4T-1; Vector pGEX-4T-1; The discussion calls the Kid of the gliding assay (Kid-GFP-His, another construct) full-length; nothing is said of the limits of GST-Kid; also called GST-Kid; source: E. coli BL21 (DE3) pLysS, purified (glutathione-Sepharose 4B)
T1 sequence (looked up): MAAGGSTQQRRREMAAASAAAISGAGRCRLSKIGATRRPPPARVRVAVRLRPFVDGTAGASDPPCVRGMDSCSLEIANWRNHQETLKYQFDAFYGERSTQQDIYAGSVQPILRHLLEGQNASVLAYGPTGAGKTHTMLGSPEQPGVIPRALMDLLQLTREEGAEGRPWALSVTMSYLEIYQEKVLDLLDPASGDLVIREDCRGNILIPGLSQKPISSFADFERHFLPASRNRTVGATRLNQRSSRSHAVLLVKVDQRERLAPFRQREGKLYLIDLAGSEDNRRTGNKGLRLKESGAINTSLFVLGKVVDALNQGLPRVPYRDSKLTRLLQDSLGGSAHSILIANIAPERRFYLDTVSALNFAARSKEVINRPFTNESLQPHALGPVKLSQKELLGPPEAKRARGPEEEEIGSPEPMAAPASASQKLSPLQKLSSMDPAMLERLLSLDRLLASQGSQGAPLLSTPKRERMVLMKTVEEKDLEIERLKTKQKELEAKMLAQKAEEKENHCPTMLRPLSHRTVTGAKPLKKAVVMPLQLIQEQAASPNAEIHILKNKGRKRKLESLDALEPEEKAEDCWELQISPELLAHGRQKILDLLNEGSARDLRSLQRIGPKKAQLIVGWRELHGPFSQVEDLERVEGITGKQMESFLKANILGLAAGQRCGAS
Experiment: pull-down; GST or GST-Kid (2 μg) on glutathione beads with 2 μg purified His-NuSAP; 50 mM Tris-HCl pH 7.0, 150 mM NaCl, 1 mM EGTA, 0.5% Triton X-100; 3 h at 4 °C; NuSAP blotted with anti-NuSAP antibody
Conditions: both partners purified

- binding result: binds
B1: His-tagged NuSAP recombinant protein (natural protein, human (cDNA library from HEK 293T cells), UniProt Q9BXS6 1-441, looked up)
chain: MIIPSLEELDSLKYSDLQNLAKSLGLRANLRATKLLKALKGYIKHEARKGNENQDESQTSASSCDETEIQISNQEEAERQPLGHVTKTRRRCKTVRVDPDSQQNHSEIKISNPTEFQNHEKQESQDLRATAKVPSPPDEHQEAENAVSSGNRDSKVPSEGKKSLYTDESSKPGKNKRTAITTPNFKKLHEAHFKEMESIDQYIERKKKHFEEHNSMNELKQQPINKGGVRTPVPPRGRLSVASTPISQRRSQGRSCGPASQSTLGLKGSLKRSAISAAKTGVRFSAATKDNEHKRSLTKTPARKSAHVTVSGGTPKGEAVLGTHKLKTITGNSAAVITPFKLTTEATQTPVSNKKPVFDLKASLSRPLNYEPHKGKLKPWGQSKENNYLNQHVNRINFYKKTYKQPHLQTKEEQRKKREQERKEKKAKVLGMRRGLILAED
notes: NuSAP; cDNA amplified from a cDNA library extracted from HEK 293T cells, inserted into pET28b; Vector pET28b; also called His-NuSAP; source: E. coli BL21 (DE3) pLysS, purified (Ni-NTA agarose)
